The target in data set [1] is wild-type sphingosine kinase (Homo sapiens, UniProt Q9NYA1). Particulars: chemical inhibitor hitherto used widely; cited from earlier work.
For data set [2], the system named is endogenous sphingosine kinase. Put plainly: Activation of endogenous sphingosine kinase activity by TNFα, IL-1 and PMA in HEK293 cells expressing the variant. In kind it is cell-based, human. Particulars: for effect on increases in sphingosine kinase activity after activating agents: 100 units/ml IL-1 10 min, 100 ng/ml PMA 30 min (FIGS. 3 & 4). As to the method:
HEK293 cells transfected with either pcDNA3-G82DSK or empty pcDNA3 vector were treated with 1 ng/ml TNFα and 100 units/ml IL-1 for 10 min and 100 ng/ml PMA for 30 min.
FIG. 4 is a graphical representation of time course of sphingosine kinase activation by TNFα in HEK293 cells expressing G82D SK. HEK293 cells transfected with either pcDNA3-G82DSK or empty pcDNA3 vector were treated with 1 ng/ml TNFα. Cells were harvested at various times over 45 min. of TNFα treatment with the cell lysates assayed for sphingosine kinase activity.
(§1) Cell Culture and Transfection—Human embryonic kidney cells (HEK293T, ATCC CRL-1573) cells were cultured on Dulbecco's modified Eagle's medium (DMEM; CSL Biosciences, Parkville, Austrlia) containing 10% fetal calf serum, 2 mM glutamine, 0.2% (w/v) sodium bicarbonate, penicillin (1.2 mg/ml), and gentamycin (1.6 mg/ml). Transfections were performed using the calcium phosphate precipitation method (Graham & van der Eb, 1973). Cells were harvested and lysed by sonication (2 watts for 30 s at 4° C.) in lysis buffer containing 50 mM Tris/HCl (pH 7.4), 10% glycerol, 0.05% Triton X-100, 150 mM NaCl, 1 mM dithiothreitol, 2 mM Na3VO4 10 mM NaF, and 1 mM EDTA. Protein concentrations in cell homogenates were determined with either the Coomassie Brillant Blue (Sigma) or Bichinchoninic acid (Pierce) reagents using BSA as standard.

The nature of data set [3]: Sphingosine kinase activity of lysates of HEK293/HEK293T cells transfected with hSK or mutant hSK. In kind it is biochemical, human. Particulars: for sphingosine kinase (catalytic) activity of the variant itself: transfected HEK293 cells (FIG. 2); for Vmax: standardised for the expression levels of the two recombinant proteins. As for the experimental part:
as §1
as §1, with “Australia)” for “Austrlia)”, “Na3VO4,” for “Na3VO4”, “with” for “with either”, “Brilliant” for “Brillant”, “reagent” for “or Bichinchoninic acid (Pierce) reagents”
(§2) Kinetic parameters were calculated using a non-linear regression program.

For data set [4], the system named is protein kinase C. Put plainly: Protein kinase C activity in situ in HEK293 cells (TNFα or PMA). In kind it is cell-based, human. Particulars: TNFα or PMA (FIG. 7).
Protocol: (§5) Neutral sphingomyelinase activity was determined using [choline-methyl-^14C]sphingomyelin as substrate, essentially as previously described (Wiegmann et al., 1994). Briefly, whole cell lysates, prepared as described above, were added to an equal volume of 100 mM Tris/HCl buffer (pH 7.4) containing 0.2% Triton X-100, 10 mM MgCl2 and [choline-methyl-^14C]sphingomyelin (50,000 cpm/assay) and incubated at 37° C. for 60 min. Radioactive phosphorylcholine produced was then extracted with chloroform/methanol (2:1, v/v) and quantified in the aqueous phase by scientillation counting. The measurement of PKC activity in situ was performed as described previously (Xia et al., 1996). Briefly, cells were seeded in 24-well plates and maintained in culture medium until 70-80% confluent. After the indicated treatments, the cells were washed with DMEM and placed in 60 μl of buffered salt solution (137 mM NaCl, 5.4 mM KCl, 0.3 mM Na2HPO4, 0.4 mM KH2PO4, 5.5 mM glucose, and 20 mM HEPES) supplemented with 50 μg/ml digitonin, 10 mM MgCl2, 25 mM β-glycerophosphate, and 10 μM [γ^32P]ATP (5000 cpm/pmol). A PKC-specific peptide substrate ([sequence]) was then added (to 2001) in the presence of 5 mM EGTA and 2.5 mM CaCl2. […] The PKC-dependent phosphorylated peptide substrate bound to the filter was quantified by scintillation counting.
The subject of data set [5] is NIH 3T3 cells. Nature of the data set: Focus formation (transformation) assay in V12-Ras transfected NIH 3T3 cells. Particulars: V12-Ras plus G82D-SK transfected NIH 3T3 cells, two weeks (FIG. 11). In kind it is cell-based. As to the method:
(§3) A. NIH 3T3 cells were transfected with V12-Ras, v-Src or V12-Ras plus G82D-SK, SphK activity was measured 48 h after transfection. B. Focus formation assays were performed in V12-Ras, v-Src, SphK, or V12-Ras plus G82D-SK transfected NIH 3T3 cells in the absence or presence of DMS (2.5 μM) over two weeks.
(§4) For focus formation assay, low passage NIH 3T3 cells were transfected with the V12 mutant H-ras, v-SRC (gifts from Dr. Julian Downward^2), SphK, G82D mutant SphK expression vectors or empty vector using Lipofectamine Plus as described above. Two days later, the transfected cells were split to 6-well plates. After reaching confluence, they were kept for two weeks in DMEM containing 5% calf serum. The foci were visualized and scored after staining with 0.5% crystal violet. For soft agar assay, suspensions of 1×10^4 cells from the stable transfected pools in a growth medium containing 0.33% agar were overlaid onto 0.6% agar gel in the absence or presence of DMS at various concentrations. After 14-days incubation colonies were stained with 0.1 mg/ml MTT and those greater than 0.1 mm in diameter were scored as positive.

The subject of data set [6] is overexpressed wild-type sphingosine kinase. Put plainly: Activation of overexpressed wild-type sphingosine kinase by TNFα in cotransfected HEK293 cells. The format is cell-based, human. Particulars: for effect on activation of overexpressed wild-type sphingosine kinase: HEK293 cells cotransfected with equal proportions, 1 ng/ml TNFα 10 min (FIG. 5). As for the experimental part: HEK293 cells, either transfected with pcDNA3-SK, or cotransfected with equval proportions of pcDNA3-SK and pcDNA3-G82DSK were treated with 1 ng/ml TNFα for 10 min. Cells were then harvested and the SK activity in the cell lysates determined.
as §1

Data set [7] has as its system ERK. Put plainly: ERK activation by TNFα in HEK293 cells (Western blot). The format is cell-based, human. Particulars: TNFα (FIG. 9). As to the method: Western Blotting—SDS-PAGE was performed on cell lysates according to the method of Laemmli using 12% acrylamide gels. Proteins were blotted to nitrocellulose and the membranes blocked overnight at 4° C. in PBS containing 5% skim milk and 0.1% Triston X-100. Sphingosine kinase expression levels were analysed with the M2 anti-FLAG antibody (Sigma). ERK activation in response to agonists was followed in cells serum-starved for 4 h using anti-ERK1/2 (Zymed, San Francisco, Calif.) and anti-phospho-ERK1/2 (Promega, Madison, Wis.) antibodies. Immunocomplexes were detected after conjugation to either HRP anti-mouse (Pierce) or anti-rabbit (Selinus/AMRAD, Melbourne, Australia) IgG using an enhanced chemiluminescence kit (Amersham).
A general note: Immunoblotting shows a protein as a band on a membrane.

Data set [8] has as its system sphingomyelinase. Particulars: HEK293 cells, TNF (FIG. 8).
Protocol: as §5
Data set [9] has as its system sphingosine kinase stimulated by the oncogene Ras. Put plainly: Activation of SK by the oncogene Ras in 3T3 fibroblasts. In kind it is cell-based. Particulars: 3T3 fibroblasts (FIG. 6). As for the experimental part: as §3, §4
Data set [10] in a line: Kinetic analysis of hSK with ATP. In kind it is biochemical, human. As for the experimental part: Kinetic analyses were performed with ATP in the concentration range of 0-2 mM and 0-40 mM for hSK^WT and hSK^G82A, respectively. In both cases sphingosine was present at 100 μM.
as §2

Data set [11] is described as follows: Kinetic analysis of hSK with sphingosine. In kind it is biochemical, human. Particulars: for Km: sphingosine 0-2 mM, ATP 1 mM (hSK^WT), 40 mM (hSK^G82A), non-linear regression. As to the method: Kinetic analyses were performed with sphingosine in the concentration range of 0-2 mM for both hSK^WT and hSK^G82A. ATP was present at 1 mM and 40 mM for hSK^WT and hSK^G82A, respectively.
as §2

The values below come from patent US20080279841A1, “Novel Therapeutic Molecular Variants And Uses Thereof” (MEDVET SCIENCE PTY LTD., priority 2000, published 2008).

“Also recorded” adds a separate entry of the source. Where two headings read alike, the source gives them in different places.

A word on the Km: it is the concentration of substrate that gives half-maximal velocity.

With `CCCCCCCCCCCCC/C=C/[C@@H](O)[C@H](CO)N(C)C` [DMS, N′N-dimethylsphingosine], the “effect on wild-type sphingosine kinase function” value in data set [1] is listed as “totally eliminates”.

B1: G82DSK: human sphingosine kinase mutant, substitution of the glycine at position 82 to aspartic acid (protein)
chain: MDPAGGPRGVLPRPCRVLVLLNPRGGKGKALQLFRSHVQPLLAEAEISFTLMLTERRNHARELVRSEELGRWDALVVMSGDDLMHEVVNGLMERPDWETAIQKPLCSLPAGSGNALAASLNHYAGYEQVTNEDLLTNCTLLLCRRLLSPMNLLSLHTASGLRLFSVLSLAWGFIADVDLESEKYRRLGEMRFTLGTFLRLAALRTYRGRLAYLPVGRVGSKTPASPVVVQQGPVDAHLVPLEEPVPSHWTVVPDEDFVLVLALLHSHLGSEMFAAPMGRCAAGVMHLFYVRAGVSRAMLLRLFLAMEKGRHMEYECPYLVYVPVVAFRLEPKDGKGVFAVDGELMVSEAVQGQVHPNYFWMVSGCVEPPPSWKPQQMPPPEEPL
B1: the “effect on increases in sphingosine kinase activity after activating agents” value in data set [2] (1 ng/ml TNFα) was “totally suppresses; also recorded: only eliminates activation”; in data set [2] (1 ng/ml TNFα, listed as G82D SK) it was “blocks activation”. In data set [2] (1 ng/ml TNFα, time course over 45 min (FIG. 4)), the “effect on TNF mediated sphingosine kinase activation over time” value is given as “inhibits TNF mediated activation at all time point”. In data set [2] (no stimulus (FIG. 2)), the “effect on endogenous baseline sphingosine kinase activity” value is reported as “does not suppress”. Besides, the “sphingosine kinase (catalytic) activity of the variant itself” value in data set [3] was “no sphingosine kinase activity”; in data set [3] (listed as G82D), “catalytically inactive”. The “effect on activation of protein kinase C” value is reported as “does not depress” in data set [4] and “does not effect activation” in data set [4] (listed as G82D SK). Further, the “effect on Ras transformation (focus formation)” value in data set [5] was “inhibits Ras transformation”. Further, the “effect on activation of overexpressed wild-type sphingosine kinase” value in data set [6] is reported as “activation is decreased”; in data set [6] (listed as G82D SK), “decreases activation”. Besides, the “effect on overexpressed baseline sphingosine kinase levels” value in [6] (HEK293 cells overexpressing sphingosine kinase (FIG. 5)) is given as “not altered”. For the same molecule, the “effect on activation of erk by TNF” value is on record as “inhibits” in [7] and “prevents ERK activation” in data set [7] (listed as G82D SK). The “effect on activation of sphingomyelinase” value in data set [8] is recorded as “does not depress”; in data set [8] (listed as G82D SK) it was “does not inhibit activation”. The figures for the “effect on sphingosine kinase stimulated by the oncogene Ras” value in [9] and in data set [9] (listed as G82D SK) were “inhibits” and “inhibiting activation”, respectively.

B2: hSK^G82A: human sphingosine kinase mutant, substitution of the glycine at position 82 to alanine (protein, UniProt Q9NYA1 1-384, looked up, variant G82A)
Sphingosine kinase 1: MDPAGGPRGVLPRPCRVLVLLNPRGGKGKALQLFRSHVQPLLAEAEISFTLMLTERRNHARELVRSEELGRWDALVVMSGDALMHEVVNGLMERPDWETAIQKPLCSLPAGSGNALAASLNHYAGYEQVTNEDLLTNCTLLLCRRLLSPMNLLSLHTASGLRLFSVLSLAWGFIADVDLESEKYRRLGEMRFTLGTFLRLAALRTYRGRLAYLPVGRVGSKTPASPVVVQQGPVDAHLVPLEEPVPSHWTVVPDEDFVLVLALLHSHLGSEMFAAPMGRCAAGVMHLFYVRAGVSRAMLLRLFLAMEKGRHMEYECPYLVYVPVVAFRLEPKDGKGVFAVDGELMVSEAVQGQVHPNYFWMVSGCVEPPPSWKPQQMPPPEEPL
In the case of B2, in [10] (FIG. 13), the “affinity for ATP compared with wildtype hSK” value was “considerably lower affinity for ATP”. Besides, the Vmax in data set [3] is listed as 32 percentage of the maximum velocity calculated for SK^WT. Moreover, in data set [3] (transfected HEK293T cell lysates (FIG. 12)), the “catalytic activity relative to wildtype hSK” value is around 5%. In addition, the “affinity for sphingosine compared with wildtype hSK” value in data set [11] (FIG. 14) is “remains unaffected”. Besides, the Km in [11] was 15.5 µM.

B3: hSK^WT: wild-type human sphingosine kinase (SK-1), recombinant, FLAG tagged, expressed in HEK293T cells (protein, UniProt Q9NYA1 1-384, looked up)
Sphingosine kinase 1: MDPAGGPRGVLPRPCRVLVLLNPRGGKGKALQLFRSHVQPLLAEAEISFTLMLTERRNHARELVRSEELGRWDALVVMSGDGLMHEVVNGLMERPDWETAIQKPLCSLPAGSGNALAASLNHYAGYEQVTNEDLLTNCTLLLCRRLLSPMNLLSLHTASGLRLFSVLSLAWGFIADVDLESEKYRRLGEMRFTLGTFLRLAALRTYRGRLAYLPVGRVGSKTPASPVVVQQGPVDAHLVPLEEPVPSHWTVVPDEDFVLVLALLHSHLGSEMFAAPMGRCAAGVMHLFYVRAGVSRAMLLRLFLAMEKGRHMEYECPYLVYVPVVAFRLEPKDGKGVFAVDGELMVSEAVQGQVHPNYFWMVSGCVEPPPSWKPQQMPPPEEPL
modifications: FLAG tag
notes: wild-type human sphingosine kinase (SK-1), recombinant, FLAG tagged, expressed in HEK293T cells
With B3, the Km in [10] (sphingosine 100 μM, ATP 0-2 mM (hSK^WT), 0-40 mM (hSK^G82A), non-linear regression) turned out to be 115 µM; in [11], 12.1 µM. Besides, the Vmax in data set [3] is 100 percentage of the maximum velocity calculated for SK^WT.
